For orientation: Kd means a measure of binding affinity in units of concentration. In general, koff refers to the first-order rate constant of dissociation. As a reminder, the kon is the rate constant with which the complex forms. Lower therefore signals slower complex formation.

The source of these data is patent US20170305975A1 (PROCLARA BIOSCIENCES, published 2017).

Experiment [1] has as its target T1, amyloid-β 1-42 fibers (fAβ42) (human, UniProt P05067 672-713).
T1 construct: domain: amyloid-β 1-42; also called Aβ fibrils; Aβ fibers
The experiment in a line: competition with M13-Alexa488 for fAβ, fiber sedimentation assay.

Experiment [2] concerns the target T1, amyloid-β 1-42 fibers (fAβ42). The experiment in a line: SPR on Aβ fibrils, 25° C.
The next experiment concerns the target tau fibers (ftau). Description: SPR, Construct 4 on ftau. A general note: SPR reads the build-up and loss of mass on a sensor chip optically.
Experiment [3] concerns the target T1, amyloid-β 1-42 fibers (fAβ42). Description: SPR, Aβ42 fibers immobilized on a CM3 surface, about 2 µM analyte at 5 µl/min.
Experiment [4] shares this target. The experiment in a line: cell-based or functional assay.
Experiment [5] has the same target. The experiment in a line: SPR on Aβ fibrils, analyte preheated at 37° C.
Experiment [6] has the same target. Description: SPR, 4 µM rs-g3p(N1N2) on Aβ fibrils.
For experiment [7] the target is unchanged. Description: competition with labeled M13 for binding to Aβ, 45 minutes at 37 °C; phage with or without pre-activation at 50 °C for 1.5 hours.
Experiment [8] has the same target. The experiment in a line: SPR, 10^14 phage/mL over immobilized fAβ.
Experiment [9] shares this target. The experiment in a line: SPR on Aβ fibrils.
For experiment [10] the target is unchanged.
Experiment [11] has the same target. The experiment in a line: SPR, calculated from the data of FIG. 3A.

Like-named read-outs stand apart in the source and are kept apart here.

T1 sequence (P05067 672-713 limits assumed): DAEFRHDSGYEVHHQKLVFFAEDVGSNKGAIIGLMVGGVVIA

B1: If1N1N2 g3p (without Fc domain) (other)
chain: ATTDAECLSKPAFDGTLSNVWKEGDSRYANFENCIYELSGIGIGYDNDTSWNGHWTPVRAADGSGNGGDDNSSGGGSNGDSGNNSTPDTVTPGQTVNLPSDLSTLSIPANVVKSDSIGSQFSLYTNASCTMCSGYYLSNNADSIAIANITETVKADYNQPDMWFEQTDSDGNHVKILQNSYKAVSYNVESKQSDVNNPTYINYSYSVNVKQVSYDTSNVCIMNWETFQNKCDASRAVLITDTVTPSYSRNITIQSNINYQGSNGSGGSGGSGGSG
Take B1: the “fold better binding than M13 N1N2 g3p” value in [1] was approximately 4 fold.

B2: rs-g3p(N1N2)-hIgG4-Fc fusion protein (Construct 4) (Fc fusion)
chain: MAETVESCLAKPHTENSFTNVWKDDKTLDRYANYEGCLWNATGVVVCTGDETQCYGTWVPIGLAIPENEGGGSEGGGSEGGGSEGGGTKPPEYGDTPIPGYTYINPLDGTYPPGTEQNPANPNPSLEESQPLNTFMFQNNRFRNRQGALTVYTGTVTQGTDPVKTYYQYTPVSSKAMYDAYWNGKFRDCAFHSGFNEDPFVCEYQGQSSDLPQPPVNAGGGSGGGSGGGSEGGGSEGGGSEGGGSEGGGSGGGSGSGAMVRSPPCPSCPAPEFLGGPSVFLFPPKPKDTLMISRTPEVTCVVVDVSQEDPEVQFNWYVDGVEVHNAKTKPREEQFNSTYRVVSVLTVLHQDWLNGKEYKCKVSNKGLPSSIEKTISKAKGQPREPQVYTLPPSQEEMTKNQVSLTCLVKGFYPSDIAVEWESNGQPENNYKTTPPVLDSDGSFFLYSRLTVDKSRWQEGNVFSCSVMHEALHNHYTQKSLSLSPGK
notes: also called rs-g3p(N1N2)-Ig fusion; bivalent rs-g3p(N1N2)-Ig fusion
Take B2: in experiment [2], the Kd stood at 7.32 nM, the koff was 0.000128 s⁻¹ and the kon worked out at 17500 M⁻¹ s⁻¹. Binding with tau fibers (ftau) was put at a Kd of 62.9 nM.

B3: rs-g3p(N1N2)-hIgG4-Fc fusion protein (Construct 5) (Fc fusion)
chain: MAETVESCLAKPHTENSFTNVWKDDKTLDRYANYEGCLWNATGVVVCTGDETQCYGTWVPIGLAIPENEGGGSEGGGSEGGGSEGGGTKPPEYGDTPIPGYTYINPLDGTYPPGTEQNPANPNPSLEESQPLNTFMFQNNRFRNRQGALTVYTGTFTQGTDPVKTYYQYTPVSSKAMYDAYWNGKFRDCAFHSGFNEDPFVCEYQGQSSDLPQPPVNAGGGSGGGSGGGSEGGGSEGGGSEGGGSEGGGSGGGSGSGAMVRSPPCPSCPAPEFLGGPSVFLFPPKPKDTLMISRTPEVTCVVVDVSQEDPEVQFNWYVDGVEVHNAKTKPREEQFNSTYRVVSVLTVLHQDWLNGKEYKCKVSNKGLPSSIEKTISKAKGQPREPQVYTLPPSQEEMTKNQVSLTCLVKGFYPSDIAVEWESNGQPENNYKTTPPVLDSDGSFFLYSRLTVDKSRWQEGNVFSCSVMHEALHNHYTQKSLSLSPGK
Take B3: in experiment [2], the Kd was 10.9 nM, the koff was found to be 0.000166 s⁻¹ and the kon was determined as 15200 M⁻¹ s⁻¹.

B4: recombinant soluble N1N2 fragment of g3p, rs-g3p(N1N2) (Construct 3) (other)
chain: MAETVESCLAKSHTENSFTNVWKDDKTLDRYANYEGCLWNATGVVVCTGDETQCYGTWVPIGLAIPENEGGGSEGGGSEGGGSEGGGTKPPEYGDTPIPGYTYINPLDGTYPPGTEQNPANPNPSLEESQPLNTFMFQNNRFRNRQGALTVYTGTVTQGTDPVKTYYQYTPVSSKAMYDAYWNGKFRDCAFHSGFNEDLFVCEYQGQSSDLPQPPVNAPSGHHHHHH
notes: also called monomer; monomeric g3p
Regarding B4, the Kd in experiment [3] is approximately 150 nM; in [2], 150 nM; in experiment [5], 50 nM; in experiment [6] it was approximately 160 nM. Further, the values for the koff in experiment [2] and in experiment [5] were 0.00024 s⁻¹ and 0.0002 s⁻¹, respectively. Further, the kon turned out to be 1500 M⁻¹ s⁻¹ in experiment [2] and 4100 M⁻¹ s⁻¹ in [5]. Moreover, in experiment [4], the “IC50 of inhibition of Aβ42 fiber formation, ThT fluorescence (10 µM Aβ42 monomers, 37° C., 3 days)” value is approximately 20 nM.

B5: phage fd (wild type) (other)
chain: AETVESCLAKPHTENSFTNVWKDDKTLDRYANYEGCLWNATGVVVCTGDETQCYGTWVPIGLAIPENEGGGSEGGGSEGGGSEGGGTKPPEYGDTPIPGYTYINPLDGTYPPGTEQNPANPNPSLEESQPLNTFMFQNNRFRNRQGALTVYTGTVTQGTDPVKTYYQYTPVSSKAMYDAYWNGKFRDCAFHSGFNEDPFVCEYQGQSSDLPQPPVNAGGGSGGGSGGGSEGGGSEGGGSEGGGSEGGGSGGGSGSGDFDYEKMANANKGAMTENADENALQSDAKGKLDSVATDYGAAIDGFIGDVSGLANGNGATGDFAGSNSQMAQVGDGDNSPLMNNFRQYLPSLPQSVECRPYVFGAGKPYEFSIDCDKINLFRGVFAFLLYVATFMYVFSTFANILRNKES
In the case of B5, the binding result in experiment [7] was “binds”.

B6: M13 phage (Construct 1) (other)
chain: AETVESCLAKPHTENSFTNVWKDDKTLDRYANYEGCLWNATGVVVCTGDETQCYGTWVPIGLAIPENEGGGSEGGGSEGGGSEGGGTKPPEYGDTPIPGYTYINPLDGTYPPGTEQNPANPNPSLEESQPLNTFMFQNNRFRNRQGALTVYTGTVTQGTDPVKTYYQYTPVSSKAMYDAYWNGKFRDCAFHSGFNEDPFVCEYQGQSSDLPQPPVNAGGGSGGGSGGGSEGGGSEGGGSEGGGSEGGGSGGGSGSGDFDYEKMANANKGAMTENADENALQSDAKGKLDSVATDYGAAIDGFIGDVSGLANGNGATGDFAGSNSQMAQVGDGDNSPLMNNFRQYLPSLPQSVECRPFVFGAGKPYEFSIDCDKINLFRGVFAFLLYVATFMYVFSTFANILRNKES
B6: the Kd in [8] was approximately 4 nM; in experiment [9], 3.59 nM; in [10], approximately 7 nM. In experiment [9], this molecule yielded a koff of 9.2e-06 s⁻¹. The kon in experiment [9] was 2600 M⁻¹ s⁻¹.

B7: M13 phage (construct not stated) (other)
chain: AETVESCLAKPHTENSFTNVWKDDKTLDRYANYEGCLWNATGVVVCTGDETQCYGTWVPIGLAIPENEGGGSEGGGSEGGGSEGGGTKPPEYGDTPIPGYTYINPLDGTYPPGTEQNPANPNPSLEESQPLNTFMFQNNRFRNRQGALTVYTGTVTQGTDPVKTYYQYTPVSSKAMYDAYWNGKFRDCAFHSGFNEDPFVCEYQGQSSDLPQPPVNAGGGSGGGSGGGSEGGGSEGGGSEGGGSEGGGSGGGSGSGDFDYEKMANANKGAMTENADENALQSDAKGKLDSVATDYGAAIDGFIGDVSGLANGNGATGDFAGSNSQMAQVGDGDNSPLMNNFRQYLPSLPQSVECRPFVFSAGKPYEFSIDCDKINLFRGVFAFLLYVATFMYVFSTFANILRNKES
notes: also called wild type M13; labeled M13
Take B7: the Kd in experiment [11] is 3.59 nM.
